The values that follow come from paper PMC6969036 (Nature Communications, 2020).

The target of assay [1] is Syt I (synaptotagmin I) expressed in 293T cells (UniProt P46096). The assay is described as follows: cell-based or functional assay.
Assay [2] deals with T1, GST-Syt I-C2A (C2A domain of synaptotagmin I fused to glutathione S-transferase) (Mus musculus (assumed), UniProt P46096).
T1 construct: synaptotagmin I, C2A domain; its full-length Syt vectors are mouse; also called GST-C2A; source: purified
The assay is described as follows: ELISA; GST-Syt I-C2A (0.25 pmol) coated on wells in PBS, 16 h 24 °C; blocked with 5% skim milk in PBS with 0.1% Tween 20; purified scFv (0.22-36 nM STAND-A36, 1.17-1800 nM scFv-T7-A36, 3.77-601 nM scFv-GFPA36) 2 h at 24 °C; detected with anti-Flag or anti-His; binding to GST wells subtracted; Kd from Hill-Langmuir fit. The settings on record: both partners purified. In general terms: An ELISA detects its analyte on a solid surface through an enzyme-linked reagent.

For assay [3], the target named is T2, GST-Syt I-C2B (C2B domain of synaptotagmin I fused to GST) (Mus musculus (assumed), UniProt P46096).
T2 construct: synaptotagmin I, C2B domain; also called GST-C2B; source: purified
The assay is described as follows: ELISA; purified STAND-A36 on the indicated GST-fused proteins (GST-C2A, GST-C2B, GST); absorbance, n = 3. The settings on record: both partners purified.

Syt I (synaptotagmin I) expressed in 293T cells, sequence (P46096 whole entry, the tested form may be a part): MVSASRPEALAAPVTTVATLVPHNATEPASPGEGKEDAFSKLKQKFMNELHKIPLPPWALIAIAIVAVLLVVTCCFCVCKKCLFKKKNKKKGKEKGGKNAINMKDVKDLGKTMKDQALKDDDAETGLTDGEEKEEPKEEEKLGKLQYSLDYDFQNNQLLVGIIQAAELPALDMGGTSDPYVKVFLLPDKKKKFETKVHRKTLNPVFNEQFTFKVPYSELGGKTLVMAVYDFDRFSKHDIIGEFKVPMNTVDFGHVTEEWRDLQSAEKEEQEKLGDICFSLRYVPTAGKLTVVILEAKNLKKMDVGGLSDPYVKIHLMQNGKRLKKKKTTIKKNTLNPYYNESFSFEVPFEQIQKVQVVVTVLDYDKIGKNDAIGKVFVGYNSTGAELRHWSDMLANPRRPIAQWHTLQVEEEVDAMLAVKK
T2 sequence (P46096 whole entry, looked up, the tested form may be a part): as the sequence (P46096 whole entry, the tested form may be a part) above

B1: STAND-A36 (s3Flag-scFv-A36-HA) expressed in 293T cells (scFv, V domains shown)
VH: QVQLQQSGAELVRPGALVKLSCKASGFNIEDYYLHWVKQRPAQGLEWIGGIDPENGIAIYDSKFQGKASITADTSSNTAYLQLSSLTSEDTAVYYCATSEDSFDVWGQGTTVTVS
VL: DIELTQSPATMAASPGEKITITCSASSSISSNYLHWYQQKPGFSPKLLIYRTSNLASGVPARFSGSGSGTSYSLTIGTMEAEDVATYYCQQGSSIPLTFGAGTKLEIK
Regarding B1, in assay [1], the “basal dopamine release in the striatum of mice expressing STAND-A36 (microdialysis), inhibition relative to mice expressing STAND-M4” value was found to be 55.3% and the “high potassium (60 mM)-induced dopamine release in cultured dopamine neurons infected with AAV1-STAND-A36, relative to STAND-M4” value turned out to be 79.3%.

B2: scFv-T7-A36 (scFv-A36 fused with T7- and His-tags), purified from E. coli (scFv, V domains shown)
VH: B1 VH
VL: B1 VL
notes: scFv-A36: VH-(Gly4-Ser)3 linker-VL; source: E. coli, purified under non-denaturing conditions (Probond nickel-chelating resin); not shown: T7, N-terminal, kept; His6, C-terminal, kept
For orientation: Kd means the constant that tells how readily two partners part at equilibrium. A low value points to a tighter complex. As for B2, the Kd in assay [2] was determined as 341 nM.

B3: STAND-A36 (s3Flag-scFv-A36-HA), purified from E. coli (scFv, V domains shown)
VH: B1 VH
VL: B1 VL
notes: scFv-A36: VH-(Gly4-Ser)3 linker-VL, from the spleen of Balb/c mice immunised with GST-Syt II-C2A (phage display); s3Flag-scFv-HA constructs were synthesised and codon-optimised (Genscript); also called s3Flag-A36-HA; purified STAND-A36
Take B3: the Kd in assay [2] is 12.2 nM. Further, the binding result in assay [3] is “no binding”.
